In patent publication US20130072665A1:

Assays:
[1] = molecular target: cynomolgus monkey PCSK9 (cynomolgus monkey); assay: BIAcore, antibody immobilised, pH 7.4
[2] = molecular target: cynomolgus monkey PCSK9 (cynomolgus monkey); assay: KinExA solution equilibrium
[3] = molecular target: cynomolgus monkey PCSK9 (cynomolgus monkey); assay: BIAcore solution equilibrium, column To Cyno PCSK9
[4] = molecular target: cynomolgus monkey PCSK9 (cynomolgus monkey); assay: BIAcore solution equilibrium, % free cPCSK9 against [21B12]; second of four curves; cPCSK9 concentration not given
[5] = molecular target: cynomolgus monkey PCSK9 (cynomolgus monkey); assay: BIAcore solution equilibrium, % free cPCSK9 against [21B12]; leftmost of four curves; cPCSK9 concentration not given
[6] = molecular target: cynomolgus monkey PCSK9 (cynomolgus monkey); assay: BIAcore solution equilibrium
[7] = molecular target: cynomolgus monkey PCSK9 (cynomolgus monkey); assay: BIAcore solution equilibrium, % free cPCSK9 against [21B12]; rightmost of four curves; cPCSK9 concentration not given
[8] = molecular target: cynomolgus monkey PCSK9 (cynomolgus monkey); assay: BIAcore solution equilibrium, % free cPCSK9 against [21B12]; third of four curves; cPCSK9 concentration not given

Kd [1] | Kd [2] | Kd [3] | IC50 (read off the curve) [4] | IC50 (read off the curve) [5] | Kd [6] | IC50 (read off the curve) [7] | IC50 (read off the curve) [8] | Binder
0.87 nM | 0.016 nM | – | – | – | – | – | – | 16F12, anti-PCSK9 huIgG4 (antibody, V domains shown) VH: QVHLVESGGGVVQPGRSLRLSCAASGFTFNSFGMHWVRQAPGKGLEWVALIWSDGSDEYYADSVKGRFTISRDNSKNTLYLQMNSLRAEDTAVYYCARAIAALYYYYGMDVWGQGTTVTVSS VL: QSVLTQPPSVSAAPGQKVTISCSGSSSNIGNNFVSWYQQLPGTAPKLLIYDYNKRPSGIPDRFSGSKSGTSATLGITGLQTGDEADYYCGTWDSSLSAYVFGTGTRVTVLQ
– | – | 0.12 nM | – | – | – | – | – | 23B5 (antibody, V domains shown) VH: EVQLLESGGGLVQPGGSLRLSCAASGFTFSSYAMNWVRQAPGKGLEWVSTISGSGDNTYYADSVKGRFTISRDNSKNTLYLQMNSLRAEDTAVYYCAKKFVLMVYAMLDYWGQGTLVTVSS VL: DILMTQSPSSLSASVGDRVTITCRASQSISSYLNWYQQKPGKAPKVLIYAASSLQSGVPSRFSGSGSGTDFTLTINSLQPEDFATYYCQQSYSSPITFGQGTRLEIK
0.36 nM | – | – | 0.03 nM | 0.02 nM | 0.011 nM | 0.2 nM | 0.09 nM | 21B12, anti-PCSK9 huIgG4 (antibody, V domains shown) VH: QVQLVQSGAEVKKPGASVKVSCKASGYTLTSYGISWVRQAPGQGLEWMGWVSFYNGNTNYAQKLQGRGTMTTDPSTSTAYMELRSLRSDDTAVYYCARGYGMDVWGQGTTVTVSS VL: QSALTQPASVSGSPGQSITISCTGTSSDVGGYNSVSWYQQHPGKAPKLMIYEVSNRPSGVSNRFSGSKSGNTASLTISGLQAEDEADYYCNSYTSTSMVFGGGTKLTVLQ
